Test results: the RNAGym collection of RNA variant scans (doi:10.7554/elife.80360)

B1: HDV Ribozyme (parent)
chain: GGCCGGCAUGGUCCCAGCCUCCUCGCUGGCGCCGGCUGGGCAACAUUCCGAGGGGACCGUCCCCUCGGUAAUGGCGAAUGGGACCCA

Variants of: B1
Assay: self-cleavage, relative activity (ratio to wild type); higher = more cleavage; co-transcriptional

First: G35U G76U
Second: U37C A70C
The self-cleavage of the first is lower: 0.595 for the first, 1.04 for the second.

First: U37C A42U
Second: G38C A78G
The self-cleavage of the first is higher: 0.295 for the first, 0.0639 for the second.

First: C36G G54C
Second: C36G G54A
The self-cleavage of the first is higher: 0.243 for the first, 0.0831 for the second.

Going from G35U A77C to G35C U47C, the self-cleavage rises from 0.0875 to 0.237.

First: G35C U47G
Second: C36U C44G
The self-cleavage of the first is lower: 0.0923 for the first, 0.231 for the second.

First: C36G A71G
Second: C36G A71C
The self-cleavage of the first is higher: 0.138 for the first, 0.0475 for the second.

Compared with G35U C36G, C36G A45U is lower in self-cleavage: 0.104 for the first, 0.0791 for the second.

Compared with G35C G74C, C36A G81U is lower in self-cleavage: 0.17 for the first, 0.0523 for the second.

Compared with G35C C86A, C36A C66A is lower in self-cleavage: 0.212 for the first, 0.151 for the second.

First: U37A C64A
Second: G38A A43U
The self-cleavage of the first is lower: 0.0723 for the first, 0.111 for the second.

Compared with U37G G82A, C36G G76A is higher in self-cleavage: 0.158 for the first, 0.162 for the second.

Compared with C36G G76U, C36G A70G is lower in self-cleavage: 0.277 for the first, 0.147 for the second.

Going from G35U C86U to G35U C86A, the self-cleavage falls from 0.464 to 0.35.

First: G35U C86G
Second: C36G U47C
The self-cleavage of the first is higher: 0.397 for the first, 0.128 for the second.

First: C36U C41A
Second: C36U C41G
The self-cleavage of the first is higher: 0.683 for the first, 0.45 for the second.

First: U37A U72G
Second: U37A C57G
The self-cleavage of the first is higher: 0.302 for the first, 0.213 for the second.

First: U37G G76A
Second: G35U U60G
The self-cleavage of the first is lower: 0.185 for the first, 0.285 for the second.

Going from G38C A42G to U37C A78U, the self-cleavage rises from 0.0449 to 0.161.

Compared with U37C A78C, U37C A78G is higher in self-cleavage: 0.196 for the first, 0.475 for the second.

Going from C36U G74C to C36U G74A, the self-cleavage falls from 0.253 to 0.205.

First: C36A U46C
Second: U37C C48U
The self-cleavage of the first is lower: 0.166 for the first, 1.14 for the second.

Going from U37G A45C to C36G C86U, the self-cleavage rises from 0 to 0.0437.

First: G38A G39U
Second: U37C G76U
The self-cleavage of the first is lower: 0.0665 for the first, 1.3 for the second.

Compared with G38A C64A, G38A C64U is higher in self-cleavage: 0.0678 for the first, 0.225 for the second.

First: G38A U47A
Second: G38A U47G
The self-cleavage of the first is lower: 0.0594 for the first, 0.116 for the second.

First: G35U C41A
Second: G35U C41G
The self-cleavage of the first is higher: 0.3 for the first, 0.188 for the second.

Going from U37A U65A to C36U U37A, the self-cleavage falls from 0.122 to 0.0978.

Going from C36U U37G to G35U G54A, the self-cleavage rises from 0.166 to 0.499.

Going from C36U A87G to G35U C61A, the self-cleavage falls from 0.674 to 0.428.

Compared with U37C C61A, U37C C61G is lower in self-cleavage: 1.2 for the first, 0.816 for the second.

First: C36U G68U
Second: G38A C61G
The self-cleavage of the first is higher: 0.786 for the first, 0.138 for the second.

Going from G38A C75A to G38A C62U, the self-cleavage rises from 0.115 to 0.153.

Compared with G38A C62G, G35U A87C is higher in self-cleavage: 0.298 for the first, 0.432 for the second.

Compared with U37C A43U, C36G A77C is lower in self-cleavage: 0.172 for the first, 0 for the second.

Going from U37G A77U to C36A C75A, the self-cleavage rises from 0.138 to 0.175.

First: C36G C66A
Second: U37A A45C
The self-cleavage of the first is higher: 0.162 for the first, 0.0707 for the second.

Compared with U37A A45U, U37C G39A is lower in self-cleavage: 0.175 for the first, 0.0997 for the second.

Compared with U37C G39C, G38C C75U is lower in self-cleavage: 0.177 for the first, 0.0297 for the second.

Compared with C36A G55C, C36A G55U is lower in self-cleavage: 0.196 for the first, 0.124 for the second.

Compared with U37A G59U, C36G G67C is lower in self-cleavage: 0.181 for the first, 0.148 for the second.

First: C36G C62A
Second: U37G G73U
The self-cleavage of the first is lower: 0.0791 for the first, 0.0923 for the second.

Going from G38A G80C to G38A C49U, the self-cleavage rises from 0.117 to 0.119.

Compared with G38C C84U, C36U G76A is higher in self-cleavage: 0.158 for the first, 0.697 for the second.

Going from U37C C49G to G35U G73C, the self-cleavage falls from 1.21 to 0.185.

First: G35U C48U
Second: U37G A78G
The self-cleavage of the first is higher: 0.554 for the first, 0 for the second.

Compared with C36A U72G, C36A U72C is lower in self-cleavage: 0.0978 for the first, 0.0405 for the second.

Going from C36A U72A to U37C U79C, the self-cleavage falls from 0.277 to 0.193.

Compared with C36G A87C, C36G G68U is lower in self-cleavage: 0.146 for the first, 0.0615 for the second.

Going from G38A U69C to G38C A77U, the self-cleavage falls from 0.31 to 0.128.

First: G38C A77C
Second: G35C U60A
The self-cleavage of the first is lower: 0.177 for the first, 0.192 for the second.

First: U37C U47A
Second: G38C C61A
The self-cleavage of the first is higher: 0.864 for the first, 0.218 for the second.

First: G38C C61G
Second: C36G G39A
The self-cleavage of the first is higher: 0.219 for the first, 0.0326 for the second.

Compared with G35U G38U, G35U G38C is higher in self-cleavage: 0 for the first, 0.0536 for the second.

First: U37C G74A
Second: C36A A56U
The self-cleavage of the first is lower: 0.196 for the first, 0.229 for the second.

Compared with U37A G68U, U37C G67C is higher in self-cleavage: 0.0845 for the first, 0.989 for the second.

First: U37C G67U
Second: C36A G68C
The self-cleavage of the first is higher: 0.974 for the first, 0.235 for the second.

First: C36A G68U
Second: G38A G68U
The self-cleavage of the first is lower: 0.157 for the first, 0.18 for the second.

Compared with G38A G68C, C36G C49A is lower in self-cleavage: 0.197 for the first, 0.138 for the second.

Going from C36U C57G to C36U A45G, the self-cleavage falls from 0.79 to 0.522.

Going from G38C C57A to C36G G55A, the self-cleavage rises from 0.102 to 0.117.

Going from C36G G50U to G35C G40A, the self-cleavage rises from 0.101 to 0.271.

First: G38A C44G
Second: G35U U72A
The self-cleavage of the first is lower: 0.0449 for the first, 0.172 for the second.

First: U37G C84U
Second: C36G C44U
The self-cleavage of the first is higher: 0.111 for the first, 0.0426 for the second.

First: U37G A42C
Second: U37G A42U
The self-cleavage of the first is higher: 0.308 for the first, 0 for the second.

Going from C36U G54C to G35U U47C, the self-cleavage falls from 0.872 to 0.189.

Compared with G38A C63U, U37A G40A is higher in self-cleavage: 0.0923 for the first, 0.305 for the second.

First: C36G G38A
Second: G35C C75A
The self-cleavage of the first is lower: 0.143 for the first, 0.225 for the second.

Compared with G35U C62G, C36U A42G is lower in self-cleavage: 0.259 for the first, 0.122 for the second.

Going from G35U G67C to G35U G67A, the self-cleavage rises from 0.41 to 0.506.

Going from U37C A51G to U37A G74C, the self-cleavage falls from 0.966 to 0.212.

Compared with U37G C85G, C36U A71U is higher in self-cleavage: 0.201 for the first, 0.471 for the second.

Compared with U37A G82U, C36A G82U is lower in self-cleavage: 0.166 for the first, 0.0839 for the second.

Compared with U37A G81A, G35U A42G is higher in self-cleavage: 0.166 for the first, 0.17 for the second.

Going from G35U A42U to C36A G59U, the self-cleavage falls from 0.246 to 0.138.

First: U37G G54U
Second: U37G G54C
The self-cleavage of the first is higher: 0.135 for the first, 0.0594 for the second.

Compared with G35U C58G, C36U G55U is higher in self-cleavage: 0.323 for the first, 0.8 for the second.

Compared with U37A U60G, G35C C64G is higher in self-cleavage: 0.192 for the first, 0.426 for the second.

Compared with C36A A45U, U37A G55A is higher in self-cleavage: 0.0475 for the first, 0.283 for the second.

Going from G38A A70U to G38A A70C, the self-cleavage rises from 0.148 to 0.177.

First: U37G G39A
Second: G35C C66G
The self-cleavage of the first is lower: 0.0811 for the first, 0.228 for the second.

Compared with U37A G76A, U37A G76C is higher in self-cleavage: 0.172 for the first, 0.203 for the second.

Compared with U37G G67A, U37C C62U is higher in self-cleavage: 0.0692 for the first, 1.26 for the second.

First: U37C C62G
Second: C36G U46C
The self-cleavage of the first is higher: 0.0723 for the first, 0 for the second.

For C36A A83G, the self-cleavage was 0.159.
